Results reported in patent US20030059429A1 (published 2003).

Experiments:
Recombinant human IL-5 [1] = target: T1, Recombinant human IL-5 (human, UniProt P05113 20-134, 125I label (Bolton-Hunter reagent) in the receptor binding inhibition assay and the colony lifts; residues not stated); assay: cell-based or functional assay
Recombinant human IL-5 [2] = target: T1, Recombinant human IL-5; assay: inhibition of 125I-IL-5 binding to IL-5R(α chain) from Drosophila membranes
Recombinant human IL-5 [3] = target: T1, Recombinant human IL-5; assay: cell-based or functional assay; remark: listed apart in the source
human IL-1β = human IL-1β (human, UniProt P01584 117-269); assay: ELISA, supernatants of the cloned lines
human IL-8 = human IL-8 (human, UniProt P10145 28-99, limits assumed); assay: ELISA, supernatants of the cloned lines
human TGFα = human TGFα (human, UniProt P01135 40-89); assay: ELISA, supernatants of the cloned lines
human IL-1α = target: T2, human IL-1α (human, UniProt P01583 113-271); assay: ELISA, supernatants of the cloned lines
T2 sequence (looked up): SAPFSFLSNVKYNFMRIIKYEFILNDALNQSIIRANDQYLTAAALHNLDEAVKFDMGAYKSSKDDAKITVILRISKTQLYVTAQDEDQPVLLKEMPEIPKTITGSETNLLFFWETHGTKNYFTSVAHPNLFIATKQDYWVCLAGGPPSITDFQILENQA

human IL-4 = target: T3, human IL-4 (human, UniProt P05112 25-153); assay: ELISA, supernatants of the cloned lines
T3 sequence (looked up): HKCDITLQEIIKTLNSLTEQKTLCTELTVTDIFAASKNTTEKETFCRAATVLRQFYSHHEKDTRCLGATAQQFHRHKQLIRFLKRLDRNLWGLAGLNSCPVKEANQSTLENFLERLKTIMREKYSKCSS

human M-CSF = target: T4, human M-CSF (human, UniProt P09603 33-190, limits assumed); assay: ELISA, supernatants of the cloned lines
T4 sequence (looked up): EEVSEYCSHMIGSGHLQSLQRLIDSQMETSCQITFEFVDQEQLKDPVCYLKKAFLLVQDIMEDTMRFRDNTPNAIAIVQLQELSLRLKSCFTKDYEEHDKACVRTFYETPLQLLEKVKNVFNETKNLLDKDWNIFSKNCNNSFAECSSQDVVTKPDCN

Recombinant human IL-5 [4] = target: T1, Recombinant human IL-5; assay: optical biosensor (BIAcore), immobilized hIL-5, 25° C.
Recombinant human IL-5 [5] = target: T1, Recombinant human IL-5; assay: colony lift assay with iodinated IL-5, chain shuffled library

| Binder | 100% Inhibition (pM), B13 cell proliferation (Recombinant human IL-5 [1]) [pM] | Proliferation IC50 (pM), B13 cells (Recombinant human IL-5 [1]) [pM] | IC50 (Recombinant human IL-5 [2]) [nM] | inhibition of proliferation of murine B13 cells (Recombinant human IL-5 [3]) [%] | binding result (human IL-1β) | binding result (human IL-8) | binding result (human TGFα) | binding result (human IL-1α) | binding result (human IL-4) | binding result (human M-CSF) | Kd (Recombinant human IL-5 [4]) [nM] | binding result (Recombinant human IL-5 [5]) |
| --- | --- | --- | --- | --- | --- | --- | --- | --- | --- | --- | --- | --- |
| murine monoclonal antibody 2B6 (antibody, IgG1, V domains shown, also called mAb 2B6; murine 2B6) VH: QVQLKESGPGLVAPSQSLSITCTVSGFSLTSYSVHWVRQPPGKGLEWLGVIWASGGTDYNSALMSRLSISKDNSKSQVFLKLNSLQTDDTAMYYCARDPPSSLLRLDYWGQGTTLTVSS VL: DIVMTQSPSSLSVSAGEKVTMSCKSSQSLLNSGNQKNYLAWYQQKPGQPPKLLIYGASTRESGVPDRFTGSGSGTDFTLSISSVQAEDLAVYYCQNVHSFPFTFGSGTELEIK | 200 | 70 | 1 | > 70 | no binding | no binding | no binding | no binding | no binding | no binding | 0.022 | – |
| Fab 2 from the chain-shuffled library (2B6 Fd with a library light chain) (Fab, V domains shown, not shown: constant part of the murine 2B6 Fd (CH1) and any tag from pMKFabGene3H) VH: QVQLKESGPGLVAPSQSLSITCTVSGFSLTSYSVHWVRQPPGKGLEWLGVIWASGGTDYNSALMSRLSISKDNSKSQVFLKLNSLQTDDTAMYYCARDPPSSLLRLDYWGQGTTLTVSS VL: ELVMTQSPSSLSVSAGEKVTMSCKSSQSLLNSGNQKNYLAWYQQKPGQPPKLLIYGASTRESGVPDRFTGSGSGTDFTLTISSVQAEDLAVYYCQNDHSYPFTFGSGTKLEIK | – | – | – | – | – | – | – | – | – | – | – | binds |
| Fab 15 from the chain-shuffled library (2B6 Fd with a library light chain) (Fab, V domains shown, not shown: constant part of the murine 2B6 Fd (CH1) and any tag from pMKFabGene3H) VH: QVQLKESGPGLVAPSQSLSITCTVSGFSLTSYSVHWVRQPPGKGLEWLGVIWASGGTDYNSALMSRLSISKDNSKSQVFLKLNSLQTDDTAMYYCARDPPSSLLRLDYWGQGTTLTVSS VL: ELVMTQSPSSLSVSAGEKVTMSCKSSQSLLNSGNQKNYLAWYQQKPGQPPKLLIYGASTRESGVPDRFTGSGSGTDFTLTISSVQAEDLAVYYCQNDYSYPFTFGSGTKLEIK | – | – | – | – | – | – | – | – | – | – | – | binds |
| murine monoclonal antibody 2E3 (antibody, IgG2a, V domains shown, also called mAb 2E3; hybridoma SK119-2E3.39.40.2) VH: PGLVAPSQSLSITCTVSGFSLTSYSVHWVRQPPGKGLEWLGVIWASGGTDYNSALMSRLSISKDNSKSQVFLKLNSLQTDDAAMYYCARDPPFSLLRLDFWGQGTTLTVSS VL: SSLSVSAGEKVTMSCKSSQSLLNSGNQKNYLAWYQQKPGQPPKLLIYGASTRESGVPDRFTGSGSGTDFTLTISSVQAEDLAVYYCQNDHSFPFTFGSGTELEIK | 600 | 90 | 1 | > 70 | no binding | no binding | no binding | no binding | no binding | no binding | 0.02 | – |
| murine monoclonal antibody 2F2 (antibody, V domains shown, also called mAb 2F2; hybridoma SK119-2F2.37.80.12) VH: PGLVAPSQSLSITCTVSGFSLTSYSVHWVRQPPGKGLEWLGVIWASGGTDYNSALMSRLSISKDNSKSQVFLKLNSLRTDDTAMYYCARDPPSSLLRLDYWGQGTTLTVSS VL: SSLSVSAGEKVTMSCKSSQSLLNSGNQKNYLAWYQQKPGQPPKLLIYGASTRESGVPDRFTGSGSGTDFTLTISSVQAEDLAVYYCQNDHSFPFTFGSGTELEIK | 340 | 150 | 1 | > 70 | no binding | no binding | no binding | no binding | no binding | no binding | 0.013 | – |
